Target: T1, recombinant ApoE3 (human, UniProt P02649 19-317)
T1 construct: Apolipoprotein E, isoform ApoE3; also called apolipoprotein E3; source: bought: BioVision
Experiment: AlphaScreen or HTRF; AlphaLISA: ApoE2, 3 or 4 (0-100 nM) with biotinylated CLCF1 (10 nM) in PBS 0.1% BSA, rat anti-ApoE IgG (3 nM), anti-rat IgG acceptor beads, streptavidin donor beads; also with ApoE (30 nM) preincubated with DMPC (0-1000 uM) 1 h at 37 °C
Details: both partners purified

T1 sequence (P02649 19-317): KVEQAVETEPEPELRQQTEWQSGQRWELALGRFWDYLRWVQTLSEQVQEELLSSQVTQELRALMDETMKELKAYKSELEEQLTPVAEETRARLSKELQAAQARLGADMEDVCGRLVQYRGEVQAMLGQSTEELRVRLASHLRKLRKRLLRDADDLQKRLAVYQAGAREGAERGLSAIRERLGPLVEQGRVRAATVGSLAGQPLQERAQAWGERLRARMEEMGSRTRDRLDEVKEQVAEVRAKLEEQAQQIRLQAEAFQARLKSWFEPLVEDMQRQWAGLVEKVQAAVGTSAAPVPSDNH

B1: biotinylated human CLCF1 (cardiotrophin-like cytokine factor 1) (ligand, UniProt Q9UBD9 28-225, looked up)
chain: LNRTGDPGPGPSIQKTYDLTRYLEHQLRSLAGTYLNYLGPPFNEPDFNPPRLGAETLPRATVDLEVWRSLNDKLRLTQNYEAYSHLLCYLRGLNRQAATAELRRSLAHFCTSLQGLLGSIAGVMAALGYPLPQPLPGTEPTWTPGPAHSDFLQKMDDFWLLKELQTWLWRSAKDFNRLKKKMQPPAAAVTLHLGAHGF
modifications: biotin on the Avitag (BirA biotin-ligase)
notes: Cardiotrophin-like cytokine factor 1 (CLCF1), human, mature protein, codon optimized synthetic cDNA in pET24d; also called biotinylated hCLCF1; hCLC biot
  binding result: binds

Reference: publication PMC5838168, “Effect of human very low-density lipoproteins on cardiotrophin-like cytokine factor 1 (CLCF1) activity” (Scientific Reports, 2018)
